Laboratory results published in publication PMC7954794, “Protein context shapes the specificity of SH3 domain-mediated interactions in vivo” (Nature Communications, 2021).

Tests used:
Format in all cases: cell-based, Saccharomyces cerevisiae
BOI2 = assay: DHFR-PCA on solid medium, bait BOI2 (Fig. 1B); details: bait BOI2, label = prey; 3-8 replicates
Excerpt: (§1) Supplement 41467_2021_21873_MOESM8_ESM.xlsx, sheet "Fig1B" | column: medsize; medrep; Ratio; Score

[1] = test system: 575 putative partners (preys) of 22 WT SH3-containing proteins; assay: DHFR-PCA on solid medium, WT and SH3-deleted baits (Fig. 1B); set-up: key to Score: 0: SH3-independent; 1: SH3-dependent PPIs; 2: SH3-inhibited PPIs; details: for medrep (log2 median colony size normalized to plate background, PCA score): bait SLA1-3, DHFR-PCA, label = prey, Replicates 4 (2 for YCR009C, YDR388W, YIL033C); for Score: bait SLA1-3, label = prey
Outline: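 Interactions scored by DHFR protein-fragment complementation on solid medium using robotic pinning; preys (DHFR F[3] fusions) arrayed in duplicate with control borders. Baits carried C-terminal DHFR F[1,2]-FLAG tags, tested as wild type and as SH3-deleted versions carrying a flexible Gly/Ser stuffer.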

BBC1 = assay: DHFR-PCA on solid medium, bait BBC1 (Fig. 1B); details: bait BBC1, label = prey; for medrep (log2 median colony size normalized to plate background, PCA score): 2-4 replicates
Excerpt: as §1

BEM1-2 = assay: DHFR-PCA on solid medium, bait BEM1-2 (Fig. 1B); details: bait BEM1-2, label = prey; 2-8 replicates
Excerpt: as §1

BEM1-1 = assay: DHFR-PCA on solid medium, bait BEM1-1 (Fig. 1B); details: bait BEM1-1, label = prey; for medrep (log2 median colony size normalized to plate background, PCA score): 2-8 replicates
Excerpt: as §1

BZZ1-1 = assay: DHFR-PCA on solid medium, bait BZZ1-1 (Fig. 1B); details: bait BZZ1-1, label = prey; 4 replicates
Excerpt: Supplement 41467_2021_21873_MOESM8_ESM.xlsx, sheet "Fig1B" | column: medsize; medrep; Score

BUD14 = assay: DHFR-PCA on solid medium, bait BUD14 (Fig. 1B); details: bait BUD14, label = prey; for medrep (log2 median colony size normalized to plate background, PCA score): 4 replicates
Excerpt: as §1

BOI1 = assay: DHFR-PCA on solid medium, bait BOI1 (Fig. 1B); details: bait BOI1, label = prey; 3-8 replicates
Excerpt: as §1

ABP1 = assay: DHFR-PCA on solid medium, bait ABP1 (Fig. 1B); details: bait ABP1, label = prey; 2-4 replicates
Excerpt: as §1

Lsb3 = assay: Deep mutational scanning of Abp1 SH3, Abp1-Lsb3 DHFR-PCA (DMS score)
Outline: (§2)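 Yeast, genomic ABP1 SH3 single-codon mutant pool (58 positions, NNN) × DHFR F[3] prey; diploid selection, then 2 cycles PCA selection medium, 72 h, 30 °C each. Readout: Illumina sequencing of SH3 locus vs. unselected diploid reference (S2). Biological duplicates.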

Hua2 = assay: Deep mutational scanning of Abp1 SH3, Abp1-Hua2 DHFR-PCA (DMS score)
Outline: as §2

Hua2 and Lsb3 [2] = assay: Deep mutational scanning of Abp1 SH3: combined class (quadrant) from Abp1-Hua2 and Abp1-Lsb3 DHFR-PCA; details: class by DMS scores with Hua2 and Lsb3 (Neutral, Dest. both, Dest. Hua2, Dest. Lsb3)
Hua2 and Lsb3 [3] = assay: Classification of Abp1 SH3 mutants by DMS scores with Hua2 and Lsb3 (quadrant); details: class by DMS scores with Hua2 and Lsb3 (Dest. both, Dest. Hua2, Dest. Lsb3, Neutral)
[4] = only significant differences showed, PPIs completely lost have a ratio of 0.1 and the gained PPIs 2.5

Row | Molecule | medrep (log2 median colony size normalized to plate background, PCA score) (BOI2) | medrep (log2 median colony size normalized to plate background, PCA score) [1] | Score [1] | medrep (log2 median colony size normalized to plate background, PCA score) (BBC1) | medrep (log2 median colony size normalized to plate background, PCA score) (BEM1-2) | medrep (log2 median colony size normalized to plate background, PCA score) (BEM1-1) | medrep (log2 median colony size normalized to plate background, PCA score) (BZZ1-1) | medrep (log2 median colony size normalized to plate background, PCA score) (BUD14) | medrep (log2 median colony size normalized to plate background, PCA score) (ABP1) | also measured
1 | YIL033C (protein, UniProt P07278 2-416, looked up) cAMP-dependent protein kinase …: VSSLPKESQAELQLFQNEINAANPSDFLQFSANYFNKRLEQQRAFLKAREPEFKAKNIVLFPEPEESFSRPQSAQSQSRSRSSVMFKSPFVNEDPHSNVFKSGFNLDPHEQDTHQQAQEEQQHTREKTSTPPLPMHFNAQRRTSVSGETLQPNNFDDWTPDHYKEKSEQQLQRLEKSIRNNFLFNKLDSDSKRLVINCLEEKSVPKGATIIKQGDQGDYFYVVEKGTVDFYVNDNKVNSSGPGSSFGELALMYNSPRAATVVATSDCLLWALDRLTFRKILLGSSFKKRLMYDDLLKSMPVLKSLTTYDRAKLADALDTKIYQPGETIIREGDQGENFYLIEYGAVDVSKKGQGVINKLKDHDYFGEVALLNDLPRQATVTATKRTKVATLGKSGFQRLLGPAVDVLKLNDPTRH | 1.723 | 2.8 | 0 | 2.137 | 1.8558 | 1.8558 | 2.099 | 1.967 | 3.25 | medrep (log2 median colony size normalized to plate background, PCA score) (BOI1): 2.0471
2 | YHR114W (protein, UniProt P38822 1-633, looked up) Protein BZZ1: MSADLSIGNEIKDSFKETHKWVQNNLKWLKDIEQFYRERAKLEKDYSERLSRLSAEYFNKKSSTSVPISVGDTPTTTPGSIEAAGVVAWNEILSQTDMISKDHDQLSTDFENHVANQLSGLFTKLDMTLSKINGFNNDMVNKKDNIYHELEKAKKDYDEACSTMEMARNRYTKASNDRNKKKLDEKEMEMNKCKNEYLIKINQANRTKDKYYFQDVPEVLDLLQDVNEAKTLFLNDLWLKAASVENDLGANVSKRLQAANSVVKQNKPSLNTAIFIKHNLKNWKEPQDFVYKPSPVWHDDEKFAVPSSLEVEDLRIKLAKAENDYNSLQDKTQNELSKLSTLNKIKHEMKTNEDNINATKFYDTLKEYLNVVSPFTSHETLKLQAEVQIESIQNNVPEEYDLSTDNIDLSKTKKKSGIFSKFKHNILNVDSKPSSGGSTGNGNGGPLHITSLFNTSRRTRLGSAPNNAGEDSDNNSIRTTSTNNTKKTTQNSSDDGKNKVLYAYVQKDDDEITITPGDKISLVARDTGSGWTKINNDTTGETGLVPTTYIRISSAATVKANDRGPAPEVPPPRRSTLPVRTMEAIYAYEAQGDDEISIDPGDIITVIRGDDGSGWTYGECDGLKGLFPTSYCK |  |  |  | 1.475 |  |  | 4.137 |  | 3.834 | Ratio (SH3-deleted/WT medrep) (BBC1; [4]): 0.1
3 | ABP1 I25I (protein, UniProt P15891 2-592, looked up, synonymous codon change I25) Actin-binding protein: ALEPIDYTTHSREIDAEYLKIVRGSDPDTTWLIISPNAKKEYEPESTGSSFHDFLQLFDETKVQYGLARVSPPGSDVEKIIIIGWCPDSAPLKTRASFAANFAAVANNLFKGYHVQVTARDEDDLDENELLMKISNAAGARYSIQTSSKQQGKASTPPVKKSFTPSKSPAPVSKKEPVKTPSPAPAAKISSRVNDNNDDDDWNEPELKERDFDQAPLKPNQSSYKPIGKIDLQKVIAEEKAKEDPRLVQKPTAAGSKIDPSSDIANLKNESKLKRDSEFNSFLGTTKPPSMTESSLKNDDDKVIKGFRNEKSPAQLWAERKAKQNSGNAETKAEAPKPEVPEDEPEGEPDVKDLKSKFEGLAASEKEEEEMENKFAPPPKKSEPTIISPKPFSKPQEPVKAEEAEQPKTDYKKIGNPLPGMHIEADNEEEPEENDDDWDDDEDEAAQPPLPSRNVASGAPVQKEEPEQEEIAPSLPSRNSIPAPKQEEAPEQAPEEEIEEEAEEAAPQLPSRSSAAPPPPPRRATPEKKPKENPWATAEYDYDAAEDNELTFVENDKIINIEFVDDDWWLGELEKDGSKGLFPSNYVSLGN |  |  |  |  |  |  |  |  |  | LSB3_MTX2 (frequencies normalized to the reference condition) (Lsb3; Abp1-Lsb3 DHFR-PCA, MTX2, frequencies normalized to the reference condition): 1.319; lsb3sc (DMS score) (Lsb3; Lsb3, frequencies scaled to the synonymous mutation distribution (DMS score)): -0.181; HUA2_MTX2 (frequencies normalized to the reference condition) (Hua2; Abp1-Hua2 DHFR-PCA, MTX2, frequencies normalized to the reference condition): 1.723; hua2sc (DMS score) (Hua2; Hua2, frequencies scaled to the synonymous mutation distribution (DMS score)): 0.1101; quadrant (Hua2 and Lsb3 [2]): Neutral
4 | ABP1 D34D (protein, UniProt P15891 2-592, looked up, synonymous codon change D34D) Actin-binding protein: ALEPIDYTTHSREIDAEYLKIVRGSDPDTTWLIISPNAKKEYEPESTGSSFHDFLQLFDETKVQYGLARVSPPGSDVEKIIIIGWCPDSAPLKTRASFAANFAAVANNLFKGYHVQVTARDEDDLDENELLMKISNAAGARYSIQTSSKQQGKASTPPVKKSFTPSKSPAPVSKKEPVKTPSPAPAAKISSRVNDNNDDDDWNEPELKERDFDQAPLKPNQSSYKPIGKIDLQKVIAEEKAKEDPRLVQKPTAAGSKIDPSSDIANLKNESKLKRDSEFNSFLGTTKPPSMTESSLKNDDDKVIKGFRNEKSPAQLWAERKAKQNSGNAETKAEAPKPEVPEDEPEGEPDVKDLKSKFEGLAASEKEEEEMENKFAPPPKKSEPTIISPKPFSKPQEPVKAEEAEQPKTDYKKIGNPLPGMHIEADNEEEPEENDDDWDDDEDEAAQPPLPSRNVASGAPVQKEEPEQEEIAPSLPSRNSIPAPKQEEAPEQAPEEEIEEEAEEAAPQLPSRSSAAPPPPPRRATPEKKPKENPWATAEYDYDAAEDNELTFVENDKIINIEFVDDDWWLGELEKDGSKGLFPSNYVSLGN |  |  |  |  |  |  |  |  |  | lsb3sc (frequencies scaled to the synonymous mutation distribution, DMS score) (Lsb3; Abp1-Lsb3 DHFR-PCA, MTX2, DMS score scaled to the synonymous mutation distribution): -0.3576; LSB3_MTX2 (frequencies normalized to the reference condition) (Lsb3; Abp1-Lsb3 DHFR-PCA, MTX2, normalized to the reference condition): 1.143; quadrant (Hua2 and Lsb3 [3]): Neutral; hua2sc (frequencies scaled to the synonymous mutation distribution, DMS score) (Hua2; Abp1-Hua2 DHFR-PCA, MTX2, DMS score scaled to the synonymous mutation distribution): -0.3883; HUA2_MTX2 (frequencies normalized to the reference condition) (Hua2; Abp1-Hua2 DHFR-PCA, MTX2, normalized to the reference condition): 1.224
5 | YHR064C (protein, UniProt P38788 1-538, looked up) Ribosome-associated complex …: MSSPVIGITFGNTSSSIAYINPKNDVDVIANPDGERAIPSALSYVGEDEYHGGQALQQLIRNPKNTIINFRDFIGLPFDKCDVSKCANGAPAVEVDGKVGFVISRGEGKEEKLTVDEVVSRHLNRLKLAAEDYIGSAVKEAVLTVPTNFSEEQKTALKASAAKIGLQIVQFINEPSAALLAHAEQFPFEKDVNVVVADFGGIRSDAAVIAVRNGIFTILATAHDLSLGGDNLDTELVEYFASEFQKKYQANPRKNARSLAKLKANSSITKKTLSNATSATISIDSLADGFDYHASINRMRYELVANKVFAQFSSFVDSVIAKAELDPLDIDAVLLTGGVSFTPKLTTNLEYTLPESVEILGPQNKNASNNPNELAASGAALQARLISDYDADELAEALQPVIVNTPHLKKPIGLIGAKGEFHPVLLAETSFPVQKKLTLKQAKGDFLIGVYEGDHHIEEKTLEPIPKEENAEEDDESEWSDDEPEVVREKLYTLGTKLMELGIKNANGVEIIFNINKDGALRVTARDLKTGNAVKGEL | 2.6006 | 4.584 | 0 | 4.121 | 1.993 | 1.993 | 2.391 | 1.869 | 4.8359 | Ratio (SH3-deleted/WT medrep) (BEM1-1; [4]): 0.1; Ratio (SH3-deleted/WT medrep) (BUD14; [4]): 0.1
